These results are taken from PMC10952227.

The target of assay [1] is Guanylyl cyclase-A (GC-A), human (human) (UniProt P16066). Kind of assay: radioligand binding; whole GC-A-expressing QBIHEK293A cells; 50 pmol/L 125I-ANP with increasing concentrations of compound #20; DMEM with 1% BSA; 4°C, 1 h.
Assay [2] shares this target.

UniProt P16066, sequence (P16066 33-473): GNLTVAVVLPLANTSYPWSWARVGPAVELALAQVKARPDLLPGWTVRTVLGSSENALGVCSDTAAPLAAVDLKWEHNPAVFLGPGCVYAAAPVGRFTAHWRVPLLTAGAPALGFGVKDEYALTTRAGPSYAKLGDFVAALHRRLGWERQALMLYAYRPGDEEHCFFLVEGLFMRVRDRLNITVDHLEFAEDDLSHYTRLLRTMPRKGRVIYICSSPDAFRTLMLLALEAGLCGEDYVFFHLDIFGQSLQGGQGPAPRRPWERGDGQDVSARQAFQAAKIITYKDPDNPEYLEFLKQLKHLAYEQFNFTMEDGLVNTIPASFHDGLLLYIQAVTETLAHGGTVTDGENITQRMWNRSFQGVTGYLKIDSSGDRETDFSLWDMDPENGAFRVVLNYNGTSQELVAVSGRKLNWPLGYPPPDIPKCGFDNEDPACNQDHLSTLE

As to ^125I-ANP (peptide), the increase of binding by increasing concentrations of compound #20 in assay [1] was 71%.
For Brain natriuretic peptide (BNP), the cGMP production (AlphaScreen) in GC-A-expressing QBIHEK293A cells, concentration-response of human BNP without compound: EC50 in assay [2] came to 1 nmol/L.
